The values that follow are results of earlier work, collected in paper PMC3505014.

Broadly, the Kd is a measure of binding affinity in units of concentration.

One series concerns the target Cbln1 (UniProt P23435). Description: surface plasmon resonance. A general note: Surface plasmon resonance follows binding to a sensor surface in real time, without labels.
The target in the next series is NRXN1β ECD (UniProt P58400). Nature of the series: surface plasmon resonance.
UniProt P58400, sequence (P58400 51-396): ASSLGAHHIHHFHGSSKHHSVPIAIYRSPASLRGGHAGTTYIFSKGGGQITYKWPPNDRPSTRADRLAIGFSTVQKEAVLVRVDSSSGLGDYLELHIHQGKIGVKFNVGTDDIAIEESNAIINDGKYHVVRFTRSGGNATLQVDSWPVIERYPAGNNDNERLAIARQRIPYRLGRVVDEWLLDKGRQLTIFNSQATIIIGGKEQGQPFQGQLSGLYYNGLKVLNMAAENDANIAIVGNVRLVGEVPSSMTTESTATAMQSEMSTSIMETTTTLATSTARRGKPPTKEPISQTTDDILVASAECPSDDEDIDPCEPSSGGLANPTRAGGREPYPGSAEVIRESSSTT

Cbln1, sequence (P23435 22-193): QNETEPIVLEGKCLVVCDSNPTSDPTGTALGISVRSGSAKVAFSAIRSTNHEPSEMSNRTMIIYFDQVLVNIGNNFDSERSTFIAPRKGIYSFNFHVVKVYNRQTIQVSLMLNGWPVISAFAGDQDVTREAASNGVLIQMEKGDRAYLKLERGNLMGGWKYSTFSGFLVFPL

In the case of GluRδ2 (from UniProt O43424), the Kd with Cbln1 was 16.5 nM.

Consider Cbln1 (from UniProt P23435), for which, in the series with NRXN1β ECD, the Kd is 0.17 nM.
